The source of these data is US20230102344A1 (MARENGO THERAPEUTICS, published 2023).

Changes are numbered by the printed parent chain. Names may count otherwise.

A word on the Kd: it is a measure of binding affinity in units of concentration. High values mean a looser complex, low ones a tighter complex.

T1: Human NKp30 (BKM0179) (human, UniProt O14931 19-135, limits assumed)
T1 sequence (looked up): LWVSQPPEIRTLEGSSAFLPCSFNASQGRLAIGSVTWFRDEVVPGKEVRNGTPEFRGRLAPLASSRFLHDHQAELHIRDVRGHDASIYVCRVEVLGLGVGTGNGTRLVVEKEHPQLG

B1: BJM0387 (bispecific antibody, not shown: a dimerising Fc or GST; large carriers)
heavy: QVQLVQSGAEVKKPGSSVKVSCKASGYSFTTYYIHWVRQAPGQGLEWMGWFFPGSGNIKYNEKFKGRVTITADTSTSTAYMELSSLRSEDTAVYYCAGSYYSYDVLDYWGQGTTVTVSSGGGGSGGGGSGGGGSGGGGSDIQMTQSPSFLSASVGDRVTITCKASQNVGINVVWHQQKPGKAPKALIYSSSHRYSGVPSRFSGSGSGTEFTLTISSLQPEDFATYFCQQFKSYPLTFGQGTKLEIKGGGGSQVQLVQSGAEVKKPGSSVKVSCKASGYTFTDYNMHWVRQAPGQGLEWIGYIYPYNGGTGYNQKFKSKATITADESTNTAYMELSSLRSEDTAVYYCARGRPAMDYWGQGTLVTVSS
light: DIQMTQSPSSLSASVGDRVTITCRASESVDNYGISFMNWFQQKPGKAPKLLIYAASNQGSGVPSRFSGSGSGTDFTLTISSLQPDDFATYYCQQSKEVPWTFGQGTKVEIK
notes: also called anti-CD33×TCRvβ antibody BJM0387
B2: BJM0898 (antibody, V domains shown)
VH: QVQLVQSGAEVKKPGSSVKVSCKASGTDFKLTYIHWVRQAPGQGLEWMGRIFPGSGNVKYNEKFKGRVTITADTSTSTAYMELSSLRSEDTAVYYCAVSYYSYDVLDYWGQGTTVTVSS
VL: DIQMTQSPSFLSASVGDRVTITCKASQNVDNRVAWYQQKPGKAPKALIYSSSHRYKGVPSRFSGSGSGTEFTLTISSLQPEDFATYFCQQFKSYPLTFGQGTKLEIK
B3: BJM0900 (antibody, V domains shown)
VH: B2 VH with T27H, K30R, F52S, P53A
VL: B2 VL with D30A, N31D
B4: BKM0140 (scFv)
scFv: EIQLLESGGGLVQPGGSLRLSCAVSGFSITTTGYHWNWVRQAPGKGLEWVGYIYSSGSTSYNPSLKSRFTISRDTSKNTFYLQMNSLRAEDTAVYYCARGDWHYFDYWGQGTMVTVSSGGGGSGGGGSGGGGSGGGGSSSETTQPPSVSVSPGQTASITCSGEKLSDKYVHWYQQKPGQSPVMVIYENDRRPSGIPERFSGSNSGNTATLTISGTQAMDEADYFCQFWASTNSAVFGGGTQLTVL
notes: also called BJM0407 VL-D92A
B5: BKM0145 (scFv)
scFv: B4 scFv with N62A, N232A
notes: also called BJM0407 VH-N60A-VL-D92A-N95A
B6: BKM0143 (scFv)
scFv: B4 scFv with N62A, A229D
notes: also called BJM0407 VH-N60A
B7: BKM0141 (scFv)
scFv: B4 scFv with A229D, N232A
notes: also called BJM0407 VL-N95A
B8: BJM1078 (antibody, V domains shown)
VH: EIQLLESGGGLVQPGGSLRLSCAVSGFSITTTGYHWNWVRQAPGKGLEWVGYIYSSGSTSYNPSLKSRFTISRDTSKNTFYLQMNSLRAEDTAVYYCARGDWHYFDYWGQGTMVTVSS
VL: SSETTQPPSVSVSPGQTASITCSGEKLSDKYVHWYQQKPGQSPVMVIYENDRRPSGIPERFSGSNSGNTATLTISGTQAMDEADYFCQFWDSTNSAVFGGGTQLTVL
notes: only 'BJM0407 Parental'; also called BJM0407 Parental
B9: BJM1079 (scFv)
scFv: EIQLLESGGGLVQPGGSLRLSCAVSGFSITTTGYHWNWVRQAPGKGLEWVGYIYSSGSTSYNPSLKSRFTISRDTSKNTFYLQMNSLRAEDTAVYYCARGDWHYFDYWGQGTMVTVSSGGGGSGGGGSGGGGSGGGGSDSVTTQSPLSLPVTLGQPASISCSGEKLSDKYVHWYQQRPGQSPRMLIYENDRRPSGVPDRFSGSNSGNDATLKISRVEAEDVGVYFCQFWDSTNSAVFGGGTKVEIK
notes: only 'BJM0411 Parental'; also called BJM0411 Parental
B10: BKM0144 (scFv)
scFv: B9 scFv with N62A, D230A, N233A
notes: also called BJM0411 VH-N60A-VL-D92A-N95A
B11: BKM0138 (scFv)
scFv: B9 scFv with N233A
notes: also called BJM0411 VL-N95A
B12: BKM0142 (scFv)
scFv: B9 scFv with N62A
notes: also called BJM0411 VH-N60A
B13: BKM0139 (scFv)
scFv: B9 scFv with D230A
notes: also called BJM0411 VL-D92A

The target in the first assay is T2, CD33 expressed on cells (MOLM-13, MV411, HL60) (human, UniProt P20138 18-364).
T2 construct: whole, on cells; also called CD33+ MOLM-13 cells; CD33-expressing MOLM-13 cells
T2 sequence (P20138 18-364): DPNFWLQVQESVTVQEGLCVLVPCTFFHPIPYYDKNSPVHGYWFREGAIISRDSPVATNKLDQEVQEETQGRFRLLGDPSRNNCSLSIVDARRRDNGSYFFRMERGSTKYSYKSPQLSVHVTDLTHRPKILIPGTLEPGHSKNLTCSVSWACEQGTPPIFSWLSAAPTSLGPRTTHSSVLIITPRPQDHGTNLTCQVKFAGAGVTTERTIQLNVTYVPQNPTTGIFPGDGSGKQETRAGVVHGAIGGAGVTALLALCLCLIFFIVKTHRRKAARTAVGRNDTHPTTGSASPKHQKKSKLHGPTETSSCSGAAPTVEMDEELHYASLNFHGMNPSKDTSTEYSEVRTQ
As to the kind of experiment: binding to CD33+ MOLM-13 cells (cell binding assay).
B1: the binding result is “binds”.

In another assay the target is T3, human TCRvβ (BIM0444) (human).
T3 construct: also called human TCRβvP; human TCRvβ 6-5
T3 sequence (A0A0K0K1A5 22-114): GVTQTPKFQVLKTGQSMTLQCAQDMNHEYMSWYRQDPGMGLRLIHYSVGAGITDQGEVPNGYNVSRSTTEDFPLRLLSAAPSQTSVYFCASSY
As to the kind of experiment: SPR (Biacore): antibody captured via anti-human Fc on CM5, BIM0444 as analyte, 1:1 fit.
B2 displayed a dissociation constant (Kd) of 11 nM. B3 came in with a Kd of 2.7 nM.

The target of a further assay is T1, Human NKp30 (BKM0179). As to the kind of experiment: SPR (Biacore T200): human NKp30 BKM0179 captured via anti-mouse Fc on CM5, antibody as analyte, 1:1 fit.
With B4, the dissociation constant Kd turned out to be 3.3 nM. Same read-out and setting: as for B5, the figure is 4.2 nM; as for B6, 1.45 nM. Same read-out and setting: in the case of B7 it was 3 nM; in that of B8, 1.48 nM; in that of B9, 1.26 nM.

For the molecule B10, the Kd was determined as 6.4 nM. Consider B11, for which binding was put at a Kd of 3.2 nM. On the same count and under the same terms, in the case of B12 it was 1.28 nM; in that of B13, 3.2 nM.
